A short description of the data set: protein stability index of a GFP-peptide fusion (yeast GPS) (PSI 1-4); higher = more stable; sorted into four equal gates, so the index is relative within each strain. Summed up:
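Plasmids isolated from each sorting gate were PCR-amplified and Illumina-sequenced, and barcodes assigned the reads to strains. The gates, four of equal size, were set by GFP/Cherry fluorescence ratio on mid-log cultures in leucine-free medium. These cultures were yeast carrying a pooled library of tiled 17-residue yeast protein peptides fused downstream of GFP on a plasmid that also expresses Cherry. The protein stability index is the sum of every gate's read frequency times its gate number.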

± gives the uncertainty stated by the source.

Take KTLKLARAPKYASKAVP [RPL25]: the protein stability index reads like this: (doa10∆) 2.29 ± 0.06; (pdr5∆) 2.31 ± 0.056; (san1∆) 2.53 ± 0.067; (ubr1∆) 2.19 ± 0.035.

Where the note is “ubr1∆”, KTLSLKSMASAFGVSVA [RPN7] registered a protein stability index of 1.21 ± 0.13.

As for KTNKISILKRHSFAVLL [NUT1], the protein stability index is, setting by setting: (doa10∆) 2.03 ± 0.11; (pdr5∆) 2.4 ± 0.099; (san1∆) 2.19 ± 0.12; (ubr1∆) 1.99 ± 0.075.

KTSEKSENHTESDAPPK [YOR098C/NUP1] gave a protein stability index (doa10∆) of 2.52 ± 0.13, a protein stability index (pdr5∆) of 2.75 ± 0.13, a protein stability index (san1∆) of 2.53 ± 0.15 and a protein stability index (ubr1∆) of 2.28 ± 0.21.

Regarding KTSSGSYNYVENGIEVE [ITC1], the protein stability index runs as follows: (doa10∆) 3.31 ± 0.18; (pdr5∆) 3.2 ± 0.2; (san1∆) 2.95 ± 0.12; (ubr1∆) 3.31 ± 0.17.

Consider KTTYYYYNEEGIHILLY [RPC82], for which the protein stability index (doa10∆) turned out to be 1.9 ± 0.12 and the protein stability index (ubr1∆) is 2.75 ± 0.05.

Take KVAKKRLGSFTRAKAKV [RPL36A]: the protein stability index worked out at 2.64 ± 0.21 (pdr5∆), 3.1 ± 0.16 (san1∆) and 2.86 ± 0.29 (ubr1∆).

On to KVATEKDFLKAVDKVIS [RPT1], for which the protein stability index was determined as 3.23 ± 0.074 (doa10∆), 3.26 ± 0.094 (pdr5∆), 3.05 ± 0.11 (san1∆) and 3.26 ± 0.053 (ubr1∆).

For the sequence KVDIPLEVVQYIEDGRN [NUT2], the protein stability index by setting is: (doa10∆) 2.46 ± 0.066; (pdr5∆) 1.59 ± 0.065; (san1∆) 1.34 ± 0.094; (ubr1∆) 1.59 ± 0.046.

As to KVEKVVKCKMSALQQIM [SNF2], the protein stability index reads like this: (doa10∆) 2.86 ± 0.12; (pdr5∆) 3.05 ± 0.24; (san1∆) 2.95 ± 0.14; (ubr1∆) 3.13 ± 0.09.

As for KVENLDYMYENGKLTSA [YML031W/NDC1], the protein stability index is, setting by setting: (doa10∆) 3.59 ± 0.25; (pdr5∆) 3.3 ± 0.12; (san1∆) 3.04 ± 0.12.

KVIDLDTKLKAHELQSE [YIL149C/MLP2]: the protein stability index reads like this: (doa10∆) 2.55 ± 0.055; (pdr5∆) 2.73 ± 0.053; (san1∆) 2.58 ± 0.059; (ubr1∆) 2.69 ± 0.042.

Turning to KVIPYSTFRLNLSVTSP [RPO21], the protein stability index reads like this: (doa10∆) 1.67 ± 0.065; (pdr5∆) 1.53 ± 0.075; (san1∆) 1.14 ± 0.24; (ubr1∆) 1.97 ± 0.13.

As for KVKNFGVWVRYDSRSGT [RPL20A], the protein stability index reads like this: (pdr5∆) 2.74 ± 0.1; (ubr1∆) 2.55 ± 0.24.

Regarding KVMNNSFKLCTLLIAIR [YML103C/NUP188], the protein stability index amounted to 1.47 ± 0.063 (doa10∆), 1.69 ± 0.087 (pdr5∆), 1.96 ± 0.15 (san1∆) and 1.63 ± 0.09 (ubr1∆).

Consider KVNSRDDSFFNETNDKK [PRP28], for which the protein stability index is, setting by setting: (doa10∆) 2.82 ± 0.12; (pdr5∆) 3.1 ± 0.11; (san1∆) 3.04 ± 0.13; (ubr1∆) 2.94 ± 0.12.

On to KVPIGLILQRLKDLNLT [RGR1], for which the protein stability index is, setting by setting: (doa10∆) 2.48 ± 0.1; (pdr5∆) 2.57 ± 0.09; (san1∆) 2.98 ± 0.074; (ubr1∆) 2.63 ± 0.053.

In the case of KVSPEELPLVITMPATN [ARP7], the protein stability index turned out to be 2.64 ± 0.053 (doa10∆), 2.68 ± 0.065 (pdr5∆), 2.57 ± 0.053 (san1∆) and 2.57 ± 0.042 (ubr1∆).

Regarding KVTCSSNSSSSPPIIDL [MED1], the protein stability index is 2.53 ± 0.044 (doa10∆), 2.76 ± 0.044 (pdr5∆), 2.87 ± 0.032 (san1∆) and 2.74 ± 0.033 (ubr1∆).

KVVLKALFLSKINRPPV [RPL18A]: the protein stability index is, setting by setting: (doa10∆) 2.28 ± 0.12; (pdr5∆) 1.53 ± 0.067; (san1∆) 1.41 ± 0.16; (ubr1∆) 1.46 ± 0.083.

With KWGRNQPVNINLDSSIT [YMR129W/POM152], the protein stability index by setting is: (doa10∆) 2.54 ± 0.094; (pdr5∆) 2.7 ± 0.076; (san1∆) 2.71 ± 0.099; (ubr1∆) 2.52 ± 0.07.

As for KYFTESDIPVSENVFEG [SSN3], the protein stability index by setting is: (doa10∆) 3.06 ± 0.11; (pdr5∆) 3.25 ± 0.098; (san1∆) 3.1 ± 0.094; (ubr1∆) 3.06 ± 0.073.

Take KYHKEQFIKSNFEKILL [SRB8]: the protein stability index (doa10∆) turned out to be 2.21 ± 0.085, the protein stability index (pdr5∆) came to 2.32 ± 0.047, the protein stability index (san1∆) is 1.95 ± 0.075 and the protein stability index (ubr1∆) came out at 2.37 ± 0.057.

Turning to KYPLGHFVRDLGTIESA [DIS3], the protein stability index is, setting by setting: (doa10∆) 2.56 ± 0.097; (pdr5∆) 2.43 ± 0.1; (san1∆) 2.85 ± 0.15; (ubr1∆) 2.58 ± 0.19.

For KYVLITGAGKGSIGAEV [FAS2], the protein stability index (doa10∆) stood at 3.22 ± 0.24, the protein stability index (pdr5∆) was determined as 3.27 ± 0.12, the protein stability index (san1∆) came to 3.63 ± 0.099 and the protein stability index (ubr1∆) stood at 3.05 ± 0.093.

Turning to LAFNYITYDKQEPSASQ [SRP68], the protein stability index runs as follows: (doa10∆) 3.19 ± 0.048; (pdr5∆) 3.15 ± 0.056; (san1∆) 2.97 ± 0.056; (ubr1∆) 2.93 ± 0.037.

As to LAGVLYESRNVAKRRFE [RRP6], the protein stability index is, setting by setting: (doa10∆) 2.76 ± 0.066; (pdr5∆) 3.12 ± 0.061; (san1∆) 2.93 ± 0.077; (ubr1∆) 3.12 ± 0.047.

Values taken from the supplement of paper PMC9732359.
